Molecular target: DHX9 helicase (human, UniProt Q08211 1-1270)
Assay: EMSA; 5 mM AMP-PNP, 10 mM Mg2+; 100 nM DHX9, 100 nM DNA; EMSA: 20 mM Tris-HCl pH 7.5, 50 mM NaCl, 1 mM DTT, 1 mM EDTA, 10 mM MgCl2, 5% glycerol, 5 mM AMP-PNP, 30 C 30 min; MBN assay: 10 mM Tris-HCl pH 7.5, 5 mM DTT, 100 ug/ml BSA, 5 mM MgCl2, 5 mM ATP or AMP-PNP, 10% glycerol, 35 C
Settings: protein: recombinant, tags: His, label: 5'-32P

Sequence of DHX9 helicase (Q08211 whole entry): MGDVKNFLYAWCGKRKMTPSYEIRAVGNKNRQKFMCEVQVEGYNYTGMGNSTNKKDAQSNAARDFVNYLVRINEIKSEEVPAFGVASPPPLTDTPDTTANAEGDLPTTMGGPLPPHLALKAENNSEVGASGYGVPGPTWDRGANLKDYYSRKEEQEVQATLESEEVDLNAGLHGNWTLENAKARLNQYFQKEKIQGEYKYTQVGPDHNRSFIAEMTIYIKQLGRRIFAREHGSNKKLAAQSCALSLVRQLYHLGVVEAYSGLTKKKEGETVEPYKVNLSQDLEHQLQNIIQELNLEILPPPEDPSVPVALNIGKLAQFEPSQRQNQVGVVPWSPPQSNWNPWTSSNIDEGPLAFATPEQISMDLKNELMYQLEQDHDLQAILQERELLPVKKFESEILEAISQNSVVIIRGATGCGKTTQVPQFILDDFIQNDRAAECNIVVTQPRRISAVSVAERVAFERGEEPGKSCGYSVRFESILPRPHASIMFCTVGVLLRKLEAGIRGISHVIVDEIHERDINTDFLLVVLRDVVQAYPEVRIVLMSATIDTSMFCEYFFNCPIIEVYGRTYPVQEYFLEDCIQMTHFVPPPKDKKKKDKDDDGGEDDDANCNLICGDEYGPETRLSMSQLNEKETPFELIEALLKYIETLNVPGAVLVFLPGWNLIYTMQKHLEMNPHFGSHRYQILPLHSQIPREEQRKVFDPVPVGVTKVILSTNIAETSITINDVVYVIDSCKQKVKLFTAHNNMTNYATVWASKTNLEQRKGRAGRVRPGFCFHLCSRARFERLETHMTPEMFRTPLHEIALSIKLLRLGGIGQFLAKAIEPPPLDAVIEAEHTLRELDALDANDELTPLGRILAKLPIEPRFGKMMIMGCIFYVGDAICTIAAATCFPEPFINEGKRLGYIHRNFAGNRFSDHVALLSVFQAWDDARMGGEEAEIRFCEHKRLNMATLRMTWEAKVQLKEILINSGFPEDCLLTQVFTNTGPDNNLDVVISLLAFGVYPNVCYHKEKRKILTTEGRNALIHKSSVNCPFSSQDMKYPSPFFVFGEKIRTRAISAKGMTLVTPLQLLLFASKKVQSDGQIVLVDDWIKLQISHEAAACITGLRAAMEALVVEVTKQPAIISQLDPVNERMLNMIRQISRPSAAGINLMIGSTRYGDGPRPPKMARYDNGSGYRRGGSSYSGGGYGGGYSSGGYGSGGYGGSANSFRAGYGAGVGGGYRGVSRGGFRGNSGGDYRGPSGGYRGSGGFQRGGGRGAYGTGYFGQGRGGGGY

Row | Binder | binding result (self-complementary, 2 copies of one strand, blunt, hairpin may also form) | binding result (intramolecular triplex with 3' overhang, single strand, pre-annealed with 10 mM Mg2+)
1 | duplex DNA control (dsDNA) DNA 1: CTTGAGCTTGAGCTCAAGCTCAAG DNA 2: CTTGAGCTTGAGCTCAAGCTCAAG | no binding | –
2 | CCCCTCCCTTTTTGGGAGGGGCGCTTATGGGGAGGGCAGTCGAGCG (structured_DNA) [c-MYC-related intramolecular triplex with 3' overhang (H-DNA)] | – | binds
